Substitutions are numbered along the chain they refer to. In names and notes the source's numbering stands.
T1: human CD48 (on primary human peripheral blood mononuclear cells) (human, UniProt P09326 27-220)
T1 sequence: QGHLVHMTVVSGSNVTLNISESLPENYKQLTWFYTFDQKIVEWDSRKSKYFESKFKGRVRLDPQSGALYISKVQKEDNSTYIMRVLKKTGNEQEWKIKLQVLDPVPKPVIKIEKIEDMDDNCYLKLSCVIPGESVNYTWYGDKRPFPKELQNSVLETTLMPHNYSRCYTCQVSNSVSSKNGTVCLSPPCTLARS

T2: monomeric monkey CD48 expressed with a tag consisting of 2 myc and one 6-His epitopes (monkey)
T2 construct: also called mfCD48-mmH; Monomeric monkey CD48-mmH
T2 chain: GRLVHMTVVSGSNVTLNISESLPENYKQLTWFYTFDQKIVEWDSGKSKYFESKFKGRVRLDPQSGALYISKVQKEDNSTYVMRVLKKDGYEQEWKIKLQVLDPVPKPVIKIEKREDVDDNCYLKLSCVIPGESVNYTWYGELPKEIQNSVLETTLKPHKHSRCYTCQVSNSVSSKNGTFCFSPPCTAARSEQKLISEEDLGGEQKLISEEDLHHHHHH

T3: biotinylated dimeric human CD48 protein expressed as a fusion with mouse IgG2a Fc (human, biotinylated)
T3 construct: also called bio-hCD48-mFc; Dimeric human CD48-mFc
T3 chain: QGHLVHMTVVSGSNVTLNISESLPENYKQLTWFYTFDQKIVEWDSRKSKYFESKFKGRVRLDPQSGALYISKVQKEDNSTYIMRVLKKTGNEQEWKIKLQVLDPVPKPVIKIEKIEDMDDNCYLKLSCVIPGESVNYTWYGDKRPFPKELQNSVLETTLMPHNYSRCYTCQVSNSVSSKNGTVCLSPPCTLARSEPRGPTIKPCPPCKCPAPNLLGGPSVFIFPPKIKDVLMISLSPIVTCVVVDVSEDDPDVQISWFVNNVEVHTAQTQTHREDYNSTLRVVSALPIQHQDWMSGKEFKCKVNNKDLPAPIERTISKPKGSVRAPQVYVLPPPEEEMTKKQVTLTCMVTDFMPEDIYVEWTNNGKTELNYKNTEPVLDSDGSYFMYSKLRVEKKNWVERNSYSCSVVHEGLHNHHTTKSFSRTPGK

B1: H4H1771P (antibody, human IgG4, V domains shown)
VH: QVQLVQSGTEVKKPGASVKVSCKVSGYTLIDLSIHWVRQAPGEGLEWMGGFDPEESETIYAQKFQGRVTMTEDTSTDTAYMELSSLRSEDTAVYYCVTEPIFGILIHESWGQGTLVTVSS
VL: DIVMTQTPLSSPVTLGQPASISCRSSHSPVHSNGHTYLSWLQQRPGQPPRILIYKISRRFSGVPDRFSGSGAGTDFTLKISRVETEDVGIYYCMQASQFPWTFGQGTKVEIK
notes: Human IgG4 Fc (H4H)
B2: H4H1764N (antibody, human IgG4, V domains shown)
VH: QVQLVESGGGVVQPGRSLRLSCAASGFTFSDYGMHWVRQAPGKGLEWVAVIWNDGSNKNYADSVKGRFSISSDSSKNTLYLHMNSLRAEDTAVYYCARSLYSTSPWYFDLWGRGTLVTVSS
VL: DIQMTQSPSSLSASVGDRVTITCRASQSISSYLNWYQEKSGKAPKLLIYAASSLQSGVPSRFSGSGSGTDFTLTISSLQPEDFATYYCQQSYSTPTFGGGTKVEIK
notes: Human IgG4 Fc (H4H) form of 1764N
B3: H4H1763N (antibody, human IgG4, V domains shown)
VH: QIQLVQSGAEMKRPGTSVKVSCKASGYTFTSYGINWVRQAPGQGLEWMGWISAYNGDTNYAQKLQGRVTMTTDTSTTTAYMEVRSLRSDDTAVYYCARFLTGTKDYYYGMDVWGQGTTVTVSS
VL: DIQMTQSPSSLSASVGDRVTITCQASQDISNFLNWYQQKPGKAPDLLINDASILETGVPSRFSGSGSGTDFTLTINNLQPEDIATYYCQQYDNLPLTFGGGTKVEIK
notes: Human IgG4 Fc (H4H) form of 1763N
B4: H4H1774P (antibody, human IgG4, V domains shown)
VH: QVQLVESGGGVVQPGRSLRLSCAASGFTFSNYGMHWVRQAPGKGLEWVAVIWYDESSKYYTDSVKGRFTISRDNSQNTLYLQMTSLRAEDTAVYYCARDRWTYSHYFEYWGQGTLVTVSS
VL: DIQMTQSPSSVSASVGDRVTITCRASQGISSWVAWYQQKPGKAPKLLIYAASSLQSGVPSRFSGSGSGTDFTLTISSLQPEDFATYYCQQANSFPRTFGQGTKVEIK
notes: Human IgG4 Fc (H4H)
B5: H4H1781P (antibody, human IgG4, V domains shown)
VH: B4 VH with E55D, S57N, Y59N, T61A, Q76K, T84N, A88V, Y106F
VL: B4 VL with V33L, K45N, S63G, T72S, S77G
notes: Human IgG4 Fc (H4H)
B6: H4H1713N (antibody, human IgG4, V domains shown)
VH: QVQLVQSGAEVKKPGASVKVSCKASGHTFTNYYIHWVRQAPGQGLEWMGITNPNDGNTRYAQKFQGRISMTWDTSTSTVFMELSSLKSEDTAVYYCAGLRYWFFDLWGRGTPVTVSS
VL: B4 VL with G28D, V33L, K45N, Y49F, A84G, A91T, N92D, S93N, K107N
notes: Human IgG4 Fc (H4H) form of 1713N
B7: H4H1778P (antibody, human IgG4, V domains shown)
VH: B4 VH
VL: B4 VL
notes: Human IgG4 Fc (H4H)
B8: H4H1770P (antibody, human IgG4, V domains shown)
VH: QVQLVQSGAEVKKPGAAVKVSCKASGYTFTAYGISWVRQAPGQGLEWMGWISAYDGDTNNAQKFQGRVTMTTDTSSSTAYMELRSLGSDDTAVYYCARDRYSSSSGYFDYWGQGTLVTVSS
VL: B4 VL with G28D, V33L, Y36S, L46A, R96Y, V104L
notes: Human IgG4 Fc (H4H)
B9: H4H1779P (antibody, human IgG4, V domains shown)
VH: B4 VH with Y59H, T61A
VL: B4 VL with G28D
notes: Human IgG4 Fc (H4H)
B10: H4H1707N (antibody, V domains shown)
VH: EGQLLESGGGLAQPGGSLRLSCAASGITFGRYAMSWVRQAPGKGLEWVSLISGSGGSTYHADSVKGRFTISRDNSKNTLYLQMNSLRAEDTAVYYCAIYNNYNWFDPWGQGTLVTVSS
VL: EIVLTQSPGTLSLSPGERATLSCRASQSVSSNYLAWYQQKPGQAPRLLIYDASSRATDIPDRFSGSGSGTDFTLTISRLEPEDFAVYYCQQYGSSPRTFGQGTKVEIK
notes: Human IgG4 Fc (H4H) form of 1707N

How the values were obtained:
[1] = biological target: T1, human CD48 (on primary human peripheral …); test: cell-based or functional assay
[2] = biological target: T1, human CD48 (on primary human peripheral …); test: cell-based or functional assay; remark: listed apart in the source
[3] = biological target: T2, monomeric monkey CD48 expressed with a …; test: competition ELISA; blocks mfCD48-mmH binding to coated h2B4-mFc
Method: (§1) The ability of human anti-CD48 monoclonal antibodies to block human CD48 and monkey CD48 binding to the human cognate ligand, human 2B4, was measured using a competition sandwich ELISA (Table 8). Constant amounts of biotinylated dimeric human CD48 protein expressed as a fusion with mouse IgG2a Fc (“bio-hCD48-mFc” [SEQ ID NO: 387]) or monomeric monkey CD48 expressed with a tag consisting of 2 myc and one 6-His epitopes (“mfCD48-mmH” [SEQ ID NO: 386]) were separately titrated with varying amounts of antibodies. These antibody-protein complexes were incubated (1 hr, 25° C.) before being transferred to microtiter plates coated with a dimeric construct expressing the human 2B4 receptor fused to a either human IgG1 (h2B4-hFc [R&D Systems, Inc., Minneapolis, Minn., Cat. No. 1039-2B]) or mouse IgG2a Fc (h2B4-mFc [SEQ ID NO: 389). After a 1 hr at 25° C. the wells were washed and bound human CD48 was detected with streptavidin conjugated with horse-radish peroxidase (HRP), and monkey CD48 was detected with an HRP conjugated anti-myc polyclonal antibody. The ELISA was developed with a TMB solution to produce a colorimetric reaction and quenched with sulfuric acid before reading absorbance at 450 nm on a Victor X5 plate reader. Sigmoidal dose response curves were fit to the data using Prism™ software. […] (Tables 8 and 9, NB=no binding observed)

[4] = biological target: T3, biotinylated dimeric human CD48 protein …; test: competition ELISA; blocks bio-hCD48-mFc binding to coated h2B4-mFc
Method: as §1

[5] = biological target: T1, human CD48 (on primary human peripheral …); test: cell-based or functional assay; remark: listed apart in the source
[6] = biological target: T1, human CD48 (on primary human peripheral …); test: cell-based or functional assay; remark: listed apart in the source

Binder	Inhibition of IFN-gamma Release IC50; Donor 11 [1] [Molar]	% Blockade of IFNγ release, MLR; D1 [2] [%]	% Blockade of IFNγ release, MLR; D2 [2] [%]	% Blockade of IFNγ release, MLR; D3 [2] [%]	% Blockade of IFNγ release, MLR; D5 [2] [%]	% Blockade of IFNγ release, MLR; D6 [2] [%]	% Blockade of IFNγ release, MLR; D7 [2] [%]	% Blockade of IFNγ release, MLR; D9 [2] [%]	IC50 [3] [pM]	IC50 [4] [pM]	Inhibition of IFN-gamma Release IC50; Donor 9 [1] [Molar]	Inhibition of IFN-gamma Release IC50; Donor 6 [6] [Molar]	Inhibition of IFN-gamma Release IC50; Donor 7 [6] [Molar]	also measured
B1	1.5e-11	78	79	88	47	50	36	32	2.2	9.9				
B2	2.3e-11	69	46	80	75	59	48		160	76	3.1e-11			Inhibition of IFN-gamma Release IC50; Donor 8 [1]: 5.3e-12 Molar; Inhibition of IFN-gamma Release IC50; Donor 10 [1]: 5.1e-12 Molar
B3	3.4e-12	59	89	68	63	75	48	53	7.2	7.4	9.3e-12			Inhibition of IFN-gamma Release IC50; Donor 8 [1]: 8.6e-12 Molar; Inhibition of IFN-gamma Release IC50; Donor 10 [1]: 1e-12 Molar; % Blockade of IFNγ release, MLR; D4 [2]: 52%; % Blockade of IFNγ release, MLR; D8 [2]: 30%; IC50 of IFNγ release, MLR; D1 [5]: ~10 pM; IC50 of IFNγ release, MLR; D3 [5]: ~6.4 pM; IC50 of IFNγ release, MLR; D4 [5]: 210 pM; IC50 of IFNγ release, MLR; D5 [5]: ~27 pM; IC50 of IFNγ release, MLR; D6 [5]: 23 pM; IC50 of IFNγ release, MLR; D8 [5]: ~3700 pM; IC50 of IFNγ release, MLR; D9 [5]: ~4100 pM; IC50 of IFNγ release, MLR; D10 [5]: ~84 pM; IC50 of IFNγ release, MLR; D11 [5]: 73 pM; IC50 of IFNγ release, MLR; D12 [5]: ~56 pM; IC50 of IFNγ release, MLR; D13 [5]: 92 pM; IC50 of IFNγ release, MLR; D14 [5]: 63 pM; IC50 of IFNγ release, MLR; D15 [5]: ~0.059 pM; IC50 of IFNγ release, MLR; D16 [5]: 7.6 pM
B4									16	25		2.5e-11	9.5e-12	
B5									8.1	18		3.6e-11	1.5e-11	
B6									3.4	18				
B7									8.4	56		9.8e-12		
B8									22	20				
B9									5.7	16		1.7e-12	1.5e-11	
B10		66	87	78	62	77	62	60	45	22	5.1e-11			% Blockade of IFNγ release, MLR; D4 [2]: 20%; % Blockade of IFNγ release, MLR; D8 [2]: 42%
